Data from patent US20150203575A1 (Genentech, published 2015).

Assays:
[1] = biological target: T1, MAG expressed on cells (human, UniProt P20916 20-626); assay: flow cytometry, transfected 293T cells
T1 construct: Clone of the Origene human cDNA library; also called Myelin associated glycoprotein; SIGLEC4A
T1 sequence: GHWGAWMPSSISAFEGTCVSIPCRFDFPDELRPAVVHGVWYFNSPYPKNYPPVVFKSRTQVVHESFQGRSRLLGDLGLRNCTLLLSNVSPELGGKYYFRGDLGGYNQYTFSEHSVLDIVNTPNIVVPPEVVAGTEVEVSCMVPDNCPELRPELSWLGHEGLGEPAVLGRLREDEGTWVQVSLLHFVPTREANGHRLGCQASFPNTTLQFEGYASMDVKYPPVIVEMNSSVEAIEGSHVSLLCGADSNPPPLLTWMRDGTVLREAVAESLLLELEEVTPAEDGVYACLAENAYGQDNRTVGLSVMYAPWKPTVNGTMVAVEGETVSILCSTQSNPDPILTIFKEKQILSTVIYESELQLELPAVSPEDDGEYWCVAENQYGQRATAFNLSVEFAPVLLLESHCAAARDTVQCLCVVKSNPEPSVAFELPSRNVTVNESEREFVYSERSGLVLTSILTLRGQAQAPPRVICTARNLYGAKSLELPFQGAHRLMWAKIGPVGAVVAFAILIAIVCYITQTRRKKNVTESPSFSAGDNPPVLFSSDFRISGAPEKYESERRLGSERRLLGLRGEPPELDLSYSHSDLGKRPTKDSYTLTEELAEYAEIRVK

[2] = biological target: T2, human COLEC12 expressed on cells (human, UniProt Q5KU26 1-742); assay: flow cytometry, transfected 293T cells, 2 µg/ml
T2 construct: also called hCOLEC12; C-terminal his tagged hCOLEC12

[3] = biological target: T3, CLEC4G expressed on cells (human, UniProt Q6UXB4 1-293); assay: flow cytometry, transfected 293T cells, 2 µg/ml
T3 construct: Clone of the Origene human cDNA library; also called C type lectin superfamily 4 member G
T3 sequence: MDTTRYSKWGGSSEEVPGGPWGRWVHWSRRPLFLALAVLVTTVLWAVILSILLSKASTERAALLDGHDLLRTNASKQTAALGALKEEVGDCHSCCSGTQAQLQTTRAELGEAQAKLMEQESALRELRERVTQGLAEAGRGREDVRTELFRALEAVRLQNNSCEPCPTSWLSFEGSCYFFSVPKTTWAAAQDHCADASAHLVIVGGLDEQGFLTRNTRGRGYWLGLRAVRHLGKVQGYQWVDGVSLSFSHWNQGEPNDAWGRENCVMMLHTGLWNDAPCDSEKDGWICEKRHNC

[4] = biological target: T2, human COLEC12 expressed on cells; assay: flow cytometry, transfected 293T cells, 2 µg/ml; remark: listed apart in the source
[5] = biological target: T3, CLEC4G expressed on cells; assay: flow cytometry, transfected 293T cells, 2 µg/ml; remark: listed apart in the source
[6] = biological target: T1, MAG expressed on cells; assay: flow cytometry, transfected 293T cells, 2 µg/ml
[7] = biological target: T4, LRRTM4 expressed on cells (human, UniProt Q86VH4 31-590); assay: flow cytometry, transfected 293T cells, 2 µg/ml
T4 construct: Clone of the Origene human cDNA library; also called Leucine rich repeat transmembrane neuronal 4

[8] = biological target: T4, LRRTM4 expressed on cells; assay: flow cytometry, transfected 293T cells, 2 µg/ml; remark: listed apart in the source
[9] = biological target: T2, human COLEC12 expressed on cells; assay: flow cytometry, transfected 293T cells, 50 µg/ml
[10] = biological target: T3, CLEC4G expressed on cells; assay: flow cytometry, transfected 293T cells, 50 µg/ml
[11] = biological target: T1, MAG expressed on cells; assay: flow cytometry, transfected 293T cells, 50 µg/ml
[12] = biological target: T4, LRRTM4 expressed on cells; assay: flow cytometry, transfected 293T cells, 50 µg/ml
[13] = biological target: T4, LRRTM4 expressed on cells; assay: flow cytometry, transfected 293T cells, 50 µg/ml; remark: listed apart in the source
[14] = biological target: T5, BR3 expressed on cells (human, UniProt Q96RJ3 1-184); assay: flow cytometry, transfected 293T cells, 2 µg/ml
T5 construct: Clone of the Origene human cDNA library
T5 sequence: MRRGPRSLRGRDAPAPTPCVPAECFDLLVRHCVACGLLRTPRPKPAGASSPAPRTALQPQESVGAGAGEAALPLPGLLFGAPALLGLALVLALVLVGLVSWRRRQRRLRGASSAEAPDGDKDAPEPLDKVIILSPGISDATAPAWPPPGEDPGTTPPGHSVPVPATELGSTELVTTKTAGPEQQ

[15] = biological target: T6, IL-2Ra expressed on cells (human, UniProt P01589 22-272); assay: flow cytometry, transfected 293T cells, 2 µg/ml
T6 construct: Clone of the Origene human cDNA library; also called Interleukin 2 receptor alpha
T6 sequence: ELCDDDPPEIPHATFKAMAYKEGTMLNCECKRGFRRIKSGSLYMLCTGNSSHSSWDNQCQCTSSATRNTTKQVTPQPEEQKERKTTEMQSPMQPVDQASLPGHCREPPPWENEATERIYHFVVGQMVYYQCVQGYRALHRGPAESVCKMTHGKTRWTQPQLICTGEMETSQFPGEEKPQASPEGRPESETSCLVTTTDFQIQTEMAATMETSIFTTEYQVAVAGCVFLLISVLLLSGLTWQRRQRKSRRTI

[16] = biological target: T7, PSS8 expressed on cells (human, UniProt Q16651 30-343); assay: flow cytometry, transfected 293T cells, 2 µg/ml
T7 construct: Clone of the Origene human cDNA library; also called Protease serine 8; prostasin
T7 sequence (Q16651 30-343 limits assumed): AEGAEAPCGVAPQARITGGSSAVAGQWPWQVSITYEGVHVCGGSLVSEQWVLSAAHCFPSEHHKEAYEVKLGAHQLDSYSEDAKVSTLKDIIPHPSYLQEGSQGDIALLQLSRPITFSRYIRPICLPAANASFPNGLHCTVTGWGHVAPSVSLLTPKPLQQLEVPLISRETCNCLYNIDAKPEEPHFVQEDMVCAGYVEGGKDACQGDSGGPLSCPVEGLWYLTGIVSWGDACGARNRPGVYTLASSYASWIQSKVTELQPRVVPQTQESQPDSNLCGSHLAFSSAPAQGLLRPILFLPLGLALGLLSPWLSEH

T2 sequence (Q5KU26 whole entry S522P/G606S): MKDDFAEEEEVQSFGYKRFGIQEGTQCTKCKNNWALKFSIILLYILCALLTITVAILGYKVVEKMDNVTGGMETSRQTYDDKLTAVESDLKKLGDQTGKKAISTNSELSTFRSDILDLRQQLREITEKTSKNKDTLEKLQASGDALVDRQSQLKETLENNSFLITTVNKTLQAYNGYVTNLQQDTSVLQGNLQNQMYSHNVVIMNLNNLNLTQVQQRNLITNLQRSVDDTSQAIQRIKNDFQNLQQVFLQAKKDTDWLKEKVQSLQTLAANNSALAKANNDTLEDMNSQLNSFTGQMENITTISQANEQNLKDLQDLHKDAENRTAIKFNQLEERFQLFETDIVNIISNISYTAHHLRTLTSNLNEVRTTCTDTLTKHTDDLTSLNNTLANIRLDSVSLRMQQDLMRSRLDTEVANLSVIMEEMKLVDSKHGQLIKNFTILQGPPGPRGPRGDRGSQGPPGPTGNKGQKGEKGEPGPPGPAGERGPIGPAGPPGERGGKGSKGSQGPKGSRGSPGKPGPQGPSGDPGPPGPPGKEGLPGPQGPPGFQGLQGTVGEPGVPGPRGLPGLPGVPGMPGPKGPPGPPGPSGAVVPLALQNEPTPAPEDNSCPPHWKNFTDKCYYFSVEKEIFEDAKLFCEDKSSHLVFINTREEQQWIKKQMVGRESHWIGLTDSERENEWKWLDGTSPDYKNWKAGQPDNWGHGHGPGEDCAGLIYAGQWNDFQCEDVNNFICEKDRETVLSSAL
T4 sequence (Q86VH4 31-590 limits assumed): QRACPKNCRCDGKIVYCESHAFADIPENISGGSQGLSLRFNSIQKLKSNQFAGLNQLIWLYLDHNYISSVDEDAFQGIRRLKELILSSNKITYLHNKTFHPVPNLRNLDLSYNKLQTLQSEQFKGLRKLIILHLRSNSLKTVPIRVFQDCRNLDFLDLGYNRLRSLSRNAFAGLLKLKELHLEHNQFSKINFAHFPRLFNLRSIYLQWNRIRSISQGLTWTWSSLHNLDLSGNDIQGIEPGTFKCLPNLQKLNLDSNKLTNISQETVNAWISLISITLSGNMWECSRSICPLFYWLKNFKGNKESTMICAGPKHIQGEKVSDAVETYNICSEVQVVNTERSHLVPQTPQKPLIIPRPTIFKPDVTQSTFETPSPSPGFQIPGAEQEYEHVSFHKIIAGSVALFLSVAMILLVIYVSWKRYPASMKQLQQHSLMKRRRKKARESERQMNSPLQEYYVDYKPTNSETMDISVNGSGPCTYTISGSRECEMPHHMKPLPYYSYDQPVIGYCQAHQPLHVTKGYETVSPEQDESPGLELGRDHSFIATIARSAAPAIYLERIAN

B1: mPILRα-Fc (Fc fusion)
chain: not shown
notes: also called mouse PILRα-Fc; WT mPILRα-Fc; not shown: Fc of mouse IgG2a (PILRα-mIgG2a, called PILRα-Fc)
[1]
  binding result: no binding (tested: 50 µg/ml)
[2]
  % cells in lower right quadrant: 0.082%
[3]
  % cells in lower right quadrant: 69.9%
[4]
  % cells in lower right quadrant: 0.082%
[5]
  % cells in lower right quadrant: 69.9%
[6]
  % cells in lower right quadrant: 0.039%
[7]
  % cells in lower right quadrant: 2.68%
[8]
  % cells in lower right quadrant: 2.68%
[9]
  % cells in lower right quadrant: 10.1%
[10]
  % cells in lower right quadrant: 85.5%
[11]
  % cells in lower right quadrant: 0.55%
[12]
  % cells in lower right quadrant: 16.6%
[13]
  % cells in lower right quadrant: 16.6%
[14]
  % cells in lower right quadrant: 34.1%
[15]
  % cells in lower right quadrant: 14.1%
[16]
  % cells in lower right quadrant: 0.024%

B2: mPILRαR133A-Fc (Fc fusion)
chain: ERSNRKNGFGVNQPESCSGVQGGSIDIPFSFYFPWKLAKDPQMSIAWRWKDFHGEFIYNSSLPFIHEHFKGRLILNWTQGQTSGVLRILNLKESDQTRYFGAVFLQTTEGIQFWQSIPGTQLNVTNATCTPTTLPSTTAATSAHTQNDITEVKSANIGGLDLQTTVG
notes: Arg mutant of mPILRα-Fc; also called mPILRα133A-Fc; variant mPILRα (R133A); not shown: Fc of mouse IgG2a (PILRα-mIgG2a, called PILRα-Fc)
[1]
  binding result: no binding (tested: 50 µg/ml)
[2]
  % cells in lower right quadrant: 0.014%
[3]
  % cells in lower right quadrant: 0.044%
[4]
  % cells in lower right quadrant: 0.014%
[5]
  % cells in lower right quadrant: 0.044%
[6]
  % cells in lower right quadrant: 0%
[7]
  % cells in lower right quadrant: 0.025%
[8]
  % cells in lower right quadrant: 0.025%
[10]
  % cells in lower right quadrant: 0.045%
[11]
  % cells in lower right quadrant: 0%
[12]
  % cells in lower right quadrant: 0.019%
[13]
  % cells in lower right quadrant: 0.019%
